14 molecules from paper PMC12014896 (2025) can be followed below.

One may read the Kd as a measure of binding affinity in units of concentration. Read a high Kd as weaker binding.

The target of this assay is SARS-CoV-2 spike RBD (Wuhan-Hu-1) (Severe acute respiratory syndrome …, UniProt P0DTC2). The experiment in a line: SPR. (In SPR one partner is held on a chip, and binding of the other changes the refractive index at the surface.)

B1: COVIC-158 (antibody, V domains shown)
VH: EVQLVESGGGLIQPGGSLRLSCAASGLTVSSNYMNWVRQAPGKKLEWVSVIYSGGSTFYADSVRGRFTISRDNSKNTLFLQMNSLRAEDSAVYYCARDLGPYGVDVWGQGTTVTVSS
VL: DIQLTQSPSFLSASVGDRVTITCWASQGISSYLAWYQQKPGKAPKLLIYAASTLQSGVPSRFSGSGSGTEFTLTISSLQPEDFATYYCQQLNSYPLTFGQGTRLEIKR
B1 showed a Kd of 1.59 nM. This counts as single-digit nanomolar.

B2: COVIC-128 (antibody)
chain 1: not shown
chain 2: QVQLQESGGGLVQAGGSLRLSCAASGRTFSEYAMGWFRQAPGKEREFVATISWSGGSTYYTDSVKGRFTISRDNAKNTVYLQMNSLKPDDTAVYYCAAAGLGTVVSEWDYDYDYWGQGTQVTVSSGGSGGSQVQLQESGGGLVQAGGSLRLSCVASGSIFSINAMDWYRQAPGKQRELVAGITSGGSTNYGDFVKGRFTISRDNAKNTVYLQMDSLKPEDTAVYYCAAEVGGWGPPRPDYWGHGTQVTVSSGGGGSGGGGSKRTVAAPSVFIFPPSDEQLKSGTASVVCLLNNFYPREAKVQWKVDNALQSGNSQESVTEQDSKDSTYSLSSTLTLSKADYEKHKVYACEVTHQGLSSPVTKSFNRGEC
In the case of B2, the Kd is 119 nM.

B3: COVIC-290 (antibody, V domains shown)
VH: QMQLVQSGPEVKKPGTSVKVSCKASGFTFSSSAVQWVRQARGQHLEWIGWIVVGSGNTNYAQKFQERVTLTRDMSTRTAYMELSSLRSEDTAVYYCAAPNCNSTTCHDGFDIWGQGTVVTVSS
VL: EIVLTQSPGTLSLSPGERATLSCRASQSVRSSYLGWYQQKPGQAPRLLIYGASSRATGIPDRFSGSGSGTDFTLTISRLESEDFAVYYCQQYDNSPWTFGQGTKVEIK
In the case of B3, the Kd was 0.326 nM.

B4: COVIC-122 (antibody)
chain: QVQLQESGGGLVQAGGSLRLSCAASGRTFSEYAMGWFRQAPGKEREFVATISWSGGSTYYTDSVKGRFTISRDNAKNTVYLQMNSLKPDDTAVYYCAAAGLGTVVSEWDYDYDYWGQGTQVTVSSGGSGGSQVQLQESGGGLVQAGGSLRLSCAASGRTFSEYAMGWFRQAPGKEREFVATISWSGGSTYYTDSVKGRFTISRDNAKNTVYLQMNSLKPDDTAVYYCAAAGLGTVVSEWDYDYDYWGQGTQVTVSSGGGGSGGGGSKKKPLDGEYFTLQIRGRERFEMFRELNEALELKDAQAGKEPGGGGGSGGGGSQVQLQESGGGLVQAGGSLRLSCAASGRTFSEYAMGWFRQAPGKEREFVATISWSGGSTYYTDSVKGRFTISRDNAKNTVYLQMNSLKPDDTAVYYCAAAGLGTVVSEWDYDYDYWGQGTQVTVSSGGSGGSQVQLQESGGGLVQAGGSLRLSCAASGRTFSEYAMGWFRQAPGKEREFVATISWSGGSTYYTDSVKGRFTISRDNAKNTVYLQMNSLKPDDTAVYYCAAAGLGTVVSEWDYDYDYWGQGTQVTVSS
As for B4, the dissociation constant Kd is 203 nM.

B5: COVIC-295 (antibody, V domains shown)
VH: QVQLVQSGAEVKKPGSSVKVSCKASGGTFSSYSFIWVRQAPGQGLEWMGRIIPILGIANYAQKFQGRVTITADKSTTTAYMELSSLRSEDTAVYYCARGTEYGDYDVSHDWGQGTLVTVSS
VL: not shown
With B5, binding was characterised by a dissociation constant (Kd) of 0.266 nM.

B6: COVIC-143 (antibody, V domains shown)
VH: EVQLVESGGGVVQPGRSLRLSCAASGFTFSNYAMHWVRQAPGKGLEWVAVISYDGSNKYSADSVKGRFTISRDNSKNTLYLQMNSLRPEDTAVYYCARDGVGTMVRGVMSPLFDYWGQGTLVTVSS
VL: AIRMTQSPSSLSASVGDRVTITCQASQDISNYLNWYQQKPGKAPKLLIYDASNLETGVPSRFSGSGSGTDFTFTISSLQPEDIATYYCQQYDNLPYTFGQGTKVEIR
Turning to B6, the dissociation constant (Kd) came out at 5.91 nM.

B7: COVIC-297 (antibody, V domains shown)
VH: EVLLVESGGGLIQPGGSLRLSCAASGLTVSSNYMSWVRQAPGKGLEWVSVIYSGGSTFYADSVKGRFTISRDNSKNTLYLQMNSLRAEDTAVYYCARDLVTWGLDYWGQGTLVTVSS
VL: AIQLTQSPSSLSASVGDRVTITCRASQGISSYLAWYQQKPGKAPKLLIYAASTLQSGVPSRFSGSGSGTDFTLTISSLQPEDFATYYCQLLNTDPITFGQGTRLEIK
B7 displayed a Kd of 0.271 nM. Compared with the last molecule, the Kd is about 22-fold lower.

B8: COVIC-360 (antibody, V domains shown)
VH: EVQLVESGGGLVQPGGSLRLSCKASGISVAPHAVTWVRQAPGKGLEWIGVIASNADTYYASWAKGRFTISRDNSKNTLYLQMNSLRAEDTAVYYCARHPGSAGYGYTYYYAMDPWGQGTLVTVSS
VL: DIQMTQSPSSLSASVGDRVTITCQASQKIHYAINWYQQKPGKAPKLLIYGTSYLGGGVPSRFSGSGSGTDFTLTISSLQPEDFATYYCQQGYIVPNSFGGGTKVEIK
Regarding B8, binding was characterised by a dissociation constant (Kd) of 0.0132 nM.

B9: COVIC-250 (antibody, V domains shown)
VH: QVQLQQSGPGLVKPSETLALTCTVSGGSTSSYYWSWIRQPPGKGLEWIGSIYYSGSTDYNPSLKSRVTISLDTSKTQFSLKLSSVTAADTAVYYCARVDTSGWYTGDVFDYWGQGTLVTVSS
VL: DIQMTQPPSSLSASVGDRVTITCRASQSLSSYLNWYQQKPGKAPKLLIYAVFSLQSGVPSRFSGSGSGTDFTLTISSLQPEDFATYYCQQSYSTPLTFGGGTKVEIK
B9 yielded a Kd of 17.7 nM.

B10: COVIC-31 (antibody, V domains shown)
VH: EVQLVESGVEVKKPGASVKVSCKAFGYTFTGQDMHWVRQAPGQGLEWMGWINPSSAGTNYAQKFQGRVTMTRDTSISTAYMELSRLRSDDTSVYYCRKMLTIFGKVNQTMLLISGAKGQWSPSLQWGQGTMVTVSS
VL: DIVMTQTPLSLSVTPGQPASISCKSGQSLLHSDGKTYLYWYLQKPGQPPQLLIYEVSNRFSGVPDRFSGSGSGTDFTLKISRVEAEDVGVYYCMQSIQLPPTFGQGTKVEIK
The molecule B10 gave a Kd of 70.2 nM.

B11: COVIC-186 (antibody, V domains shown)
VH: QVQLLQSGAEVKKPGASVKVSCKASGYSFTSYYMHWVRQAPGQGLEWMGIINPSGGGTTYAQKFQGRVTMTRDTSTSTVYMELSSLRSEDTAVYYCARPGGGSYQEFDYWGQGTLVTVSS
VL: DIQMTQSPSSLSASVGDRVTITCRASQSISSYLNWYQQKPGKAPKLLISAASSLQSGVPSRFSGSGSGTDFTLTISSLQPEDFATYYCQQSYNTLQVTFGGGTKVEIK
Regarding B11, binding was characterised by a dissociation constant (Kd) of 6.1 nM.

B12: COVIC-184 (antibody, V domains shown)
VH: QITLKESGPTLVKPTQTLTLTCTFSGFSLSTSGVGVGWIRQPPGKALEWLALIYWDDDKRYSPSLKSRLTITKDTSKNQVVLTMTNMDPVDTATYYCAHHKIERIFDYWGQGTLVTVSS
VL: QSALAQPASVSGSPGQSITISCTGTSSDVGAYNYVSWYQQHPGKAPKLMIYDVSKRPSGVSNRFSGSKSGNTASLTISGLQAEDEADYYCSSYTTSSTVFGGGTKLTVL
With B12, the Kd was found to be 34.4 nM.

B13: COVIC-310 (antibody)
chain 1: QVQLVQSGAEVKKPGSSVKVSCKASGGTFGISWVRQAPGQGLEWMGRIIPILGTANHAQKFQGRVTITADKSTGTVYMELSSLRSEDTAVYYCARDGDSGSYYETLGFDYWGQGTLVTVSSGGGGSGGGGSGGGGQVQLVESGGGVVQSGRSLRLSCAASGFTFSSYAMHWVRQAPGKGLEWVAVISHDGSNTYYEDSVKGRFTISRDNSKNTLHLQVNSLRVEDTAVYYCARAKGEVRYFDWAEQGGDYWGQGTLVTVSS
chain 2: QSALTQPPSASGSPGQSVTISCTGTSSDVGGYNYVSWYQQHPGKAPKLMIYEVNKRPSGVPDRFSGSKSGNTASLTVSGLQAEDEADYYCSSYAGSNNLVFGGGTKLTVLGGGGSGGGGSGGGGSYELTQPPSVSVSPGQTARITCSGDALPKKYAYWYQQKSGQAPVLVIYEDSKRPSGIPERFSGSSSGTMATLTISGAQVEDEADYYCYSTDNSGDHGVFGGGTKLTVL
As to B13, the Kd was 1.85 nM.

B14: COVIC-331 (antibody, V domains shown)
VH: EVQLVESGGGLIQVGGSLRLSCAASGLTVTSNYMNWVRQGPGKGLEWVSLIYSGGTTYYADSVKGRFTISRDDSKNTLYLQMNSLRAEDTAVYYCARPIVGARSGMDVWGQGTAVTVSS
VL: DIQMTQSPSSLSASVGDRVTITCQASQDINKYLNWYQQKPGKAPKLLIYDASNLETGVPSRFSGSGSGTDFTFTISSLQPEDLATYYCHQFDNLPGTFGGGTKVEIK
Turning to B14, the Kd stood at 0.0704 nM. This Kd is about 26-fold lower than that of the molecule before.
